# Assay results from the supplement of paper PMC9112550, “Optimization of the antimicrobial peptide Bac7 by deep mutational scanning” (BMC Biology, 2022).
# System: Escherichia coli TOP10
# Experiment: shrunken log2 fold change of peptide-encoding DNA abundance (4.5 h post-induction vs induction); higher = less antimicrobial activity (less host growth inhibition)
# Details: time post-induction: 4.5 h; library: site-saturation at positions 5, 18, 19, 20
# 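Note: peptides expressed intracellularly from a pBAD plasmid library in pooled LB shake-flask culture, induced with 0.3% L-arabinose, DNA abundance read by NGS, three biological replicates, DESeq2 with apeglm shrinkage.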
row,Sequence,shrunken log2 fold change
1,RRIRNRPPRLPRPRPRPTMGPRP,-0.0468
2,RRIRGRPPRLPRPRPRPKSLPRP,0.413
3,RRIRMRPPRLPRPRPRPWLQPRP,-0.000921
4,RRIRTRPPRLPRPRPRPQQEPRP,0.0173
5,RRIRMRPPRLPRPRPRPHFIPRP,0.0859
6,RRIRVRPPRLPRPRPRPCKEPRP,-0.335
7,RRIRVRPPRLPRPRPRPCDCPRP,0.00675
8,RRIRTRPPRLPRPRPRPVPFPRP,0.0392
9,RRIRLRPPRLPRPRPRPECMPRP,0.442
10,RRIRGRPPRLPRPRPRPTFAPRP,0.997
11,RRIRGRPPRLPRPRPRPSEGPRP,0.356
12,RRIRDRPPRLPRPRPRPENAPRP,0.37
13,RRIRNRPPRLPRPRPRPDTIPRP,-0.145
14,RRIRPRPPRLPRPRPRPWLIPRP,-0.31
15,RRIRDRPPRLPRPRPRPQYMPRP,0.0516
16,RRIRRRPPRLPRPRPRPTLHPRP,0.534
17,RRIRSRPPRLPRPRPRPLQGPRP,-0.0686
18,RRIRRRPPRLPRPRPRPNAQPRP,0.287
19,RRIRVRPPRLPRPRPRPNNQPRP,-0.483
20,RRIRARPPRLPRPRPRPVKDPRP,0.284
21,RRIRSRPPRLPRPRPRPGSQPRP,-0.492
22,RRIRKRPPRLPRPRPRPLIHPRP,1.09
23,RRIRMRPPRLPRPRPRPRNIPRP,0.0054
24,RRIRVRPPRLPRPRPRPYDYPRP,-0.00141
25,RRIRGRPPRLPRPRPRPDHEPRP,0.858

row,Sequence,shrunken log2 fold change
1,RRIRYRPPRLPRPRPRPNALPRP,-0.236
2,RRIRWRPPRLPRPRPRPPSNPRP,0.133
3,RRIRIRPPRLPRPRPRPYNVPRP,-0.291
4,RRIRPRPPRLPRPRPRPTRMPRP,0.479
5,RRIRVRPPRLPRPRPRPSLNPRP,-0.416
6,RRIRMRPPRLPRPRPRPEIVPRP,0.574
7,RRIRGRPPRLPRPRPRPRCSPRP,0.415
8,RRIRLRPPRLPRPRPRPRFEPRP,0.529
9,RRIRYRPPRLPRPRPRPKYGPRP,-0.176
10,RRIRPRPPRLPRPRPRPISLPRP,-0.427
11,RRIRVRPPRLPRPRPRPLKPPRP,-0.0393
12,RRIRFRPPRLPRPRPRPINQPRP,-0.694
13,RRIRIRPPRLPRPRPRPNTHPRP,-0.677
14,RRIRPRPPRLPRPRPRPQCDPRP,-0.254
15,RRIRARPPRLPRPRPRPSCIPRP,-0.131
16,RRIRTRPPRLPRPRPRPCAQPRP,-0.05
17,RRIRMRPPRLPRPRPRPPDTPRP,1.84
18,RRIRGRPPRLPRPRPRPNNTPRP,-0.0658
19,RRIRWRPPRLPRPRPRPDGCPRP,0.0109
20,RRIRGRPPRLPRPRPRPFCKPRP,0.0671
21,RRIRWRPPRLPRPRPRPQIQPRP,-0.0544
22,RRIRCRPPRLPRPRPRPRGQPRP,-0.0954
23,RRIRERPPRLPRPRPRPSFDPRP,-0.417
24,RRIRLRPPRLPRPRPRPHIAPRP,-0.205
25,RRIRARPPRLPRPRPRPIPNPRP,-0.069

row,Sequence,shrunken log2 fold change
1,RRIRKRPPRLPRPRPRPKEAPRP,0.334
2,RRIRERPPRLPRPRPRPWVLPRP,-0.0134
3,RRIRFRPPRLPRPRPRPKNDPRP,-0.407
4,RRIRIRPPRLPRPRPRPNNEPRP,-0.597
5,RRIRLRPPRLPRPRPRPYYLPRP,-0.477
6,RRIRNRPPRLPRPRPRPMSMPRP,-0.0143
7,RRIRKRPPRLPRPRPRPSPHPRP,-0.0333
8,RRIRKRPPRLPRPRPRPGIQPRP,0.0822
9,RRIRLRPPRLPRPRPRPRGIPRP,-0.0811
10,RRIRKRPPRLPRPRPRPFYYPRP,-0.587
11,RRIRIRPPRLPRPRPRPLAVPRP,0.097
12,RRIRFRPPRLPRPRPRPGRCPRP,0.259
13,RRIRSRPPRLPRPRPRPTPHPRP,0.308
14,RRIRLRPPRLPRPRPRPHVSPRP,0.00444
15,RRIRDRPPRLPRPRPRPGCWPRP,1.03
16,RRIRGRPPRLPRPRPRPFNRPRP,-0.0104
17,RRIRFRPPRLPRPRPRPHGLPRP,0.0196
18,RRIRWRPPRLPRPRPRPLEHPRP,0.165
19,RRIRYRPPRLPRPRPRPVYLPRP,0.00668
20,RRIRRRPPRLPRPRPRPHHCPRP,-0.0737
21,RRIRGRPPRLPRPRPRPWLLPRP,0.216
22,RRIRGRPPRLPRPRPRPAFRPRP,0.749
23,RRIRCRPPRLPRPRPRPQCFPRP,-0.187
24,RRIRARPPRLPRPRPRPDTVPRP,-0.125
25,RRIRMRPPRLPRPRPRPWTWPRP,-0.0795

row,Sequence,shrunken log2 fold change
1,RRIRGRPPRLPRPRPRPEMAPRP,2.8
2,RRIRDRPPRLPRPRPRPEHFPRP,-0.138
3,RRIRMRPPRLPRPRPRPTYWPRP,0.169
4,RRIRFRPPRLPRPRPRPMRYPRP,0.0824
5,RRIRSRPPRLPRPRPRPAAMPRP,0.852
6,RRIRDRPPRLPRPRPRPPMCPRP,-0.0883
7,RRIRGRPPRLPRPRPRPEPGPRP,1.33
8,RRIRQRPPRLPRPRPRPSCPPRP,-0.037
9,RRIRKRPPRLPRPRPRPYNFPRP,-0.384
10,RRIRNRPPRLPRPRPRPIQKPRP,-0.287
11,RRIRMRPPRLPRPRPRPYLPPRP,-0.78
12,RRIRHRPPRLPRPRPRPSVHPRP,-0.204
13,RRIRSRPPRLPRPRPRPKIYPRP,-0.265
14,RRIRTRPPRLPRPRPRPRADPRP,0.158
15,RRIRARPPRLPRPRPRPRRQPRP,0.453
16,RRIRVRPPRLPRPRPRPVHAPRP,-0.189
17,RRIRHRPPRLPRPRPRPHTKPRP,-0.0831
18,RRIRKRPPRLPRPRPRPTCCPRP,0.0692
19,RRIRMRPPRLPRPRPRPVNRPRP,0.105
20,RRIRARPPRLPRPRPRPKRRPRP,0.282
21,RRIRGRPPRLPRPRPRPDHFPRP,-0.31
22,RRIRCRPPRLPRPRPRPIGYPRP,-0.00724
23,RRIRRRPPRLPRPRPRPQKAPRP,0.0122
24,RRIRGRPPRLPRPRPRPTIRPRP,0.432
25,RRIRWRPPRLPRPRPRPDFAPRP,0.49

row,Sequence,shrunken log2 fold change
1,RRIRTRPPRLPRPRPRPAPPPRP,0.525
2,RRIRVRPPRLPRPRPRPVHVPRP,-0.0459
3,RRIRFRPPRLPRPRPRPQSDPRP,0.0151
4,RRIRERPPRLPRPRPRPCYFPRP,-0.917
5,RRIRARPPRLPRPRPRPYRDPRP,-0.761
6,RRIRYRPPRLPRPRPRPENIPRP,-0.105
7,RRIRQRPPRLPRPRPRPCADPRP,-0.116
8,RRIRFRPPRLPRPRPRPIGQPRP,0.00854
9,RRIRDRPPRLPRPRPRPRLSPRP,0.286
10,RRIRTRPPRLPRPRPRPPFFPRP,0.253
11,RRIRCRPPRLPRPRPRPTEDPRP,-0.0639
12,RRIRRRPPRLPRPRPRPDILPRP,0.0906
13,RRIRQRPPRLPRPRPRPYMFPRP,-0.392
14,RRIRHRPPRLPRPRPRPIACPRP,0.0428
15,RRIRMRPPRLPRPRPRPPCHPRP,0.186
16,RRIRMRPPRLPRPRPRPVRNPRP,0.0163
17,RRIRRRPPRLPRPRPRPGYSPRP,1.84
18,RRIRYRPPRLPRPRPRPSDEPRP,-0.0199
19,RRIRDRPPRLPRPRPRPWREPRP,0.00581
20,RRIRHRPPRLPRPRPRPYAKPRP,-0.0134
21,RRIRQRPPRLPRPRPRPCNKPRP,0.0281
22,RRIRDRPPRLPRPRPRPHEDPRP,0.0325
23,RRIRKRPPRLPRPRPRPWWNPRP,0.0316
24,RRIRSRPPRLPRPRPRPTEHPRP,-0.0545
25,RRIRYRPPRLPRPRPRPGCLPRP,1.79

row,Sequence,shrunken log2 fold change
1,RRIRIRPPRLPRPRPRPLSWPRP,-0.0609
2,RRIRYRPPRLPRPRPRPYKLPRP,-0.491
3,RRIRERPPRLPRPRPRPTSKPRP,-0.426
4,RRIRRRPPRLPRPRPRPQKQPRP,0.338
5,RRIRIRPPRLPRPRPRPKLHPRP,-0.0109
6,RRIRVRPPRLPRPRPRPCFNPRP,-0.421
7,RRIRQRPPRLPRPRPRPYFRPRP,-0.368
8,RRIRGRPPRLPRPRPRPLMQPRP,0.605
9,RRIRYRPPRLPRPRPRPESQPRP,-0.0411
10,RRIRKRPPRLPRPRPRPPYYPRP,-0.291
11,RRIRKRPPRLPRPRPRPRYLPRP,-0.179
12,RRIRNRPPRLPRPRPRPDDSPRP,-0.263
13,RRIRIRPPRLPRPRPRPELDPRP,0.0332
14,RRIRPRPPRLPRPRPRPCPWPRP,0.889
15,RRIRGRPPRLPRPRPRPRCMPRP,0.364
16,RRIRLRPPRLPRPRPRPCTTPRP,0.0144
17,RRIRPRPPRLPRPRPRPHPRPRP,0.597
18,RRIRPRPPRLPRPRPRPKDTPRP,-0.173
19,RRIRCRPPRLPRPRPRPIKTPRP,-0.0653
20,RRIRGRPPRLPRPRPRPISPPRP,-0.0176
21,RRIRFRPPRLPRPRPRPPRAPRP,0.92
22,RRIRERPPRLPRPRPRPWYYPRP,0.0432
23,RRIRFRPPRLPRPRPRPTFRPRP,-0.0216
24,RRIRFRPPRLPRPRPRPFWGPRP,0.0215
25,RRIRTRPPRLPRPRPRPMFIPRP,-0.305
